Protein production data for 22 sequences are collected here from a protein production outcome set (Wang et al. 2014).
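Also: failed if final PepcDB status was selected cloned or expressed and not failed if soluble or beyond.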

The nature of the data set: label from the status in PepcDB records.
In the case of “MIGPMWSDVIDLRDFYATSQGQLTRRLIGRSLRALWPEVRGCRVLGLGYAVPFLQPFADEAERVVAMMPAPMGAVRWPSVGPVQGALADELELPLPDRSIDRLLLIHGLEFADHAHGLLRECWRVLADNGRLMVVVPNRRATWARMERSPFANGQPYSEGQLTRLLRDRLFTPIASSTALFMPPSRSRMVMGSASLLEQIGCRLFPAFGGVVVVDCAKQIAAPVLRSAVASRRVYVGVGLSQPLQGSSRAGFKNPAPFTGVDGS”, the protein production entry is “failed”.

For “MIGREGVTTLRFTVKQQFITHKHTLYGVAAILLWGSLMALTRRVAEEFSPIGGAALIYTVSTLFLLFAMGMPRLKAGSSRYILIGGALFVSYEICLALALGMASDRLQAIEMSVINYLWPALTVLIAVLLSQRAVSFWVYPSVGLAFAGVAWTIVAEQGISLADFSARIATNPAVYAMALTGAFIWAIYCNVTQRLARGQNAIVLFFAATAATLWLQYALSNEPALSFTGSSMGTLLLTGIVMGSGYALWNVAILRGNMLLLATLSYFTPVISTLFSSLILGVVLGLSFWQGVIMVTFGSLICWWVTRESSSSTGEVPETPPPLKEQS”, the protein production entry is given as “failed”.

On to “MIHQIESVQAGKKIYFLSDFHLGVPSDEESWKREKKIIRFLDSITPAAQAVFLLGDIFDFWFEYKHVIPKGFARLQGKIAQLTDSGIPVYLYTGNHDLWMFGYLEKELGVTVFHKPIDWEIAGKKFLIGHGDGLGPGDFVYKCTKKVFVNPFFQWVFKMTPPAIGMGIAKFWSGKSRQHNTDDRFFEEKEFLWQYCKEQNVLKHRSYYIFGHRHMPLDLPVGDSARYVNIGDWIKFDTFAEFDGNELKLISWKETSEPYSL”, for which the protein production result is listed as “failed”.

In the case of “MIHRRCVGGRRNHGGRVAQGSSRSRLPQQGTPVTMSSTSSTPPWNVQRLPGADGRVFLVTGGNAGIGYFVAEQLSATGATVVLGSRNPAKAEAATASIRARVPGSRVRAVRLDLADLSSLETAVESLEVERLDAVVHNAGVALDDPPREETGDGHELMFGTNHLGHFALTQWLMPLLSAAPAARVVTMGSFAAKSERLDLDDLQSRKDYQPKRTYGRSKLAQMYFGVELDRRLRAAGSTVASVVVHPGGALDSLTPSRPPVHVRSTGARLSAAPAALLLQGKHAGAWPAVRAVLDPAVRGGQLWGPRVFGLRGEPRREPVWDHLADPSVAARLWDASCDLMGTDLSTISG”, the protein production result is recorded as “failed”.

On to “MIIDEKRVQEIKNGETSLGIEFGSTRIKAVLIANDFSILASGSFEWETSLENGVWTYSIDEIWKGLQYSYQKLFAEVKEKYGVVLSKIGSIGFSAMMHGYMAFDNKGELLVPFRTWRNTMTEEAAKKLTDLFKFNIPERWSIAHLYQAILRNEPHVEKIDFLTTLAGYIHWQLTGEKVLGIGDASGMFPIDTQTHNYDKNMLETFKNLPEVKKHSLDLEKLLPKVLLAGENAGVLTLEGAKKLDVSGNLQPGIPLCPPEGDAGTGMVATNSVAPRTGNVSAGTSIFAMVVLEKPLNRVHPEIDIVTTPSGDLVAMVHANNGCSDLEAWVNIFQQFTEAINVDMRKDLLYMALYTQAFQGDPDCGGVLAYNYFAGENITGVSEGRPMVVRKAKSNFNLPNFMRAHLFTSLGALKIGMDILLKDEAVKLDKLLGHGGLFKTPIVGQAAVAGAVNAPVSVMETAGEGGAWGIALLASYLRSKENDSTLPEFLSKNVFAGYVAEEVQPDPKDVKGFEEFIERYKKGIAIEQAAVEHLILEHHHHHH”, for which the protein production entry is “failed”.

On to “MIIERLVGNLRDLNPLDFSVDHVDLEWFETRKKIARFKTRQGKDIAIRLKDAPKLGLSQGDILFKEEKEIIAVNILDSEVIHIQAKSVAEVAKICYEIGNRHAALYYGESQFEFKTPFEKPTLALLEKLGVQNRVLSSKLDSKERLTVSMPHSEPNFKVSLASDFKVVVK”, for which the protein production entry was “not failed”.

As for “MIIETERLLLRPFNEQDVDALYLMNSNPAMLKYIPTAPFTDREQARELFHNVILQDYQQRGFGRWAVEHKADNRVIGFCGPKFIPEFNEVEIGYRYFPEYWGKGIGTEAAEAALSVFPQFGIKQTIALILEGNLGSETVAKRVGMYWREHSEFMGHKINVYAKIL”, the protein production entry is listed as “failed”.

In the case of “MIIHTLHRYILRNLLVGLAVGSVALIVLIWLINSLKFLDWFVNKGLSVATFLRLTLLLMPGFLTVFIPIALFAVVLFTYNRLAADRELIVMRAAGMGPWQLARPALALCAVLTGVGYWLTLSVVPAMEGAFEAIKYEVRGEVSSLVIKEGQFNQMKDGLIVYAGERAKDGRLIDLMIHDTTGKTSDLTVMAESGALVREGEGARILLINGNRQERNRQTGKVNFLYFDSYAVDLGGKAASTEMRFREERERPLSELISLKAGDRIDPDYPFTYEERHIRRMRMEAHLRLLRPLAHIGFLLIGLAAVLTGEFDRRGGNKRVILAVALVVLFQAGSLGAATVAKKSLDGLLLLDLMTLLPILVGWIWLVWPSERWGRRRLAPRRGRTAAPALGGGAGR”, the protein production entry was “failed”.

“MIIRIVQNIQRINKEGNAPLYISFYLGKEKVVIPCKLSVPTTKFDSKTGMLRGTNKEAKDINLIIERLKAKVNDILVKHRLKNLTLNKEAFMREYNNPSDFKSFHDFVASYMKTYSRRLEIGTFRHHKSCMRKFKEYCEGLQFHELTEDFLRDYLIYMKKTLCNADSTAQRNLSTIKIYVSAAIKKGYMENDPFKDFGVKRIKSNIDYLTEEELIKFISLYYDRRLPERLERTLGFFLFMCFTSLHISDARHVCLEQINNGILTYYRIKNRNCKPEAIKIPLSIPAFKIIEELQGKRKEGH”: the protein production entry was “failed”.

On to “MIIRQGFKFRLEASDTQGARLRVLCGHARFVWNQALAKCHEAADAEGEYVPRYETMAKWVTAWKREPDTEWLKEAYTDNLQQKLKDLDTGWQRYFKKVEGAQRPRFKKKGKSRDSVRFVNFQKYCKIDNRRVKLPAGLGWVRFRKSREIVGAIKNCTVGFEGGRWFISFQTEREVSEPAHPSASMIGVDMGVARFLTLSDGTFIEPVSAFKVNQGNLARAQRALARKVKFSANWQKQKAKINRLHSRIANLRRDTLHKASTQISNNHAMIVIEDLKVGNMSRSAKGDVDNPGVNVKAKSGLNRSILDQGWYEFRRQLEYKQAFRGGGVLAVPAHHTSQTCPECQHVSPDNRTSQARFECVKCGFKENADLVGAINIQARGHRVLACGEFGLPDSVKQEPVRNREEVAPSAAHAALGIPHRRC”, for which the protein production entry is “failed”.

Regarding “MIITKNISLPELYQEWLDLKIMPSNRSDVTKKKYLSRKVTLEKLFGDKPISQIRPSEYQRIMNNYGQRVSRNFLGRLNTGVKQSLQMAIADKVMIEDFTQNVELFSTVKLEHHHHHH”, the protein production entry is on record as “not failed”.

Consider “MIIYDQHVHTSFSFDSNEKMEDYMKLAGQDFVSTEHLEFNNPEVQNHDSIPDYTKYVAEIERLKKATGKRVHKGIEIGMSAGQADKIKDYLAHHTFDIKLLSFHQDGTKDFGSNMVSHLDPLQVTDQYYQLMWKGINEFHDADVLAHFDYGVRRLSLTSGQFSTTAGVLLTNIFKVAIQNNLAFELNTKSMYKYHNIGLYDYAIEIYKQLGGKRYTIGSDAHDATHYEDHFRDALDMLKAHDIHHINVYRQGAMTVVPIDDIPEDL”, for which the protein production result is “failed”.

As to “MIKEFSDPLYGFVRVGEAGLRLIDSFPFQRLRYVKQLGLAYLVFPSAQHTRFEHSLGVYHITERICESLKVKEKELVKLAGLLHDLGHPPFSHTTEVLLPRERSHEDFTERVIKETEIYEILKQDYSHEDIERLVRITLGKPEDEEEKLLSEIITGEFGSDRMDYLRRDAYFCGVSYGFFDYDRLISTLRVYENKVVVDESGLRALENFLISRYFMYVQVYFHKVVRILSIHLVEFLKKLISQEDFTDINNFLRLNDAFVISELFKRKAFREDFERIFQRKHFKTLLSTENYEKFSETKERLLEKFPQEKVRFDEVEKEVYGGNIYVLSSEGLKKAHELSPLIASLKPIKLYRIYVDRQLWEKARSELKLS”, the protein production result is “not failed”.

On to “MIKEWATVVSWQNGQALVSCDVKASCSSCASRAGCGSRVLNKLGPQTTHTIVVPCDEPLVPGQKVELGIAEGSLLSSALLVYMSPLVGLFLIASLFQLLFASDVAALCGAILGGIGGFLIARGYSRKFAARAEWQPIILSVALPPGLVRFETSSEDASQ”, for which the protein production result is listed as “failed”.

Take “MIKGEQKRYSEMTKEELQQEIAMLTEKARKAEQMGMVNEYAVYERKIAMAKAYMLNPADFHPGEIYEIEGAPGEYFKVRYLKGVFAWGWRLKGNGEEEALPISLLRKPNLPQS”: the protein production entry is “not failed”.

“MIKGTGHMIVNIANDRGMSIDSIRKTIKESVLIAYKKYFGSNENAFIKFDDDTGDLSVYAKKKIVKEVKDSLLEILEKDISKENIVEGDYAYIEINPKVFDRLSIQVAKQRTKNDLQGIEDNEILSEFKSKLNKVVIGYVQQNRNGDLYVNLGNTDGIIPKKYQSPREVYNLNDKIRVLVYNVKKGKNGIEVILSRTHPKFIEELLALEIPEIEEGIIKIHKIVRDPGYRIKVAVYSEKEEIDPVGPCIGQKGVRIQSIIKELEGEKIDIIPYSKDIKEFIKDSLTPSKIEHVYILDEDLHKALVVVSDDQLSLAIGKMGQNVRLANRLLDWAIDVKTSSQFAEMKANSEFKQETLEMFDKVMQDVVEEEQFEEISKISDLKLLDPSVISNLSKEGFDDINNFLQADEGVLFNLGVSYEKQEEINKILKEGMIIIANDNDESMEKVEEDEELLCPECGVVINENMTSCPGCKIGLSFEFEEE”: the protein production result is given as “failed”.

For the sequence “MIKLIYKPLWLILLIFFSLKAIAEDHYPTAPSPFYYVSDYTKTLNQQEWRTLEDALINNRSKTSSQIIVVMIPSTDGEEIARYAHNLFNKWGIGRVKHNENNGVLLLIAKNDRKLFIATGRGLESALPDAIAATIIRHHITPYFKQNLYAEGIASGLSAIMAAINGEFAAYDEYQSSNNQTLDGFFFFLFAAFVIFMMFRPTRNSQYISRSNTKPFQQILRHSRYHHDTSRDLYRGGSGDSFGGGSSGGGGAGGSWLEHHHHHH”, the protein production result was “failed”.

On to “MIKQSPKYITPLNEQNVNKDNANLLVCPFAGASNSAFNSWRSTDISGLNCQLVNYSGHGCRFKEPAFNDIGLLANELITIIKKFYPPRHNSLLLCGHSMGAQVAFETAIQLEKNGWELSGLILSGCQAPHIQARRLLSDLNDDDFIQQLIAIGGCDAELIKQPQLLKQFMPLLRADFLATERYFFQKSTKRLFHTPVLLMYGSHDSEADKNEVEAWQDWIDKHCTINCIAGDHFYPITRPNTFCRFIIDFYHQ”, for which the protein production result is recorded as “failed”.

“MIKSDDAGKLILRLALGILVIMHGLAKLSSGVGGIAGMLSSHGLPGFLAYFAYVGEIVGPLLIILGIYCRLGALLVVLNMVVAILLAHMGQLFSISNTGGWALELQGMFLFGALALAFMGAGRFSLAGSGGRWN”: the protein production entry is reported as “failed”.

As to “MIKSTNIQAIGSGIMHQINNVYSLTPLSLPMELTPSCNEFYLKTWSEWEKNGTPGEQRNIAFNRLKICLQNQEAELNLSELDLKTLPDLPPQITTLEIRKNLLTHLPDLPPMLKVIHAQFNQLESLPALPETLEELNAGDNKIKELPFLPENLTHLRVHNNRLHILPLLPPELKLLVVSGNRLDSIPPFPDKLEGLALANNFIEQLPELPFSMNRAVLMNNNLTTLPESVLRLAQNAFVNVAGNPL”, the protein production entry is listed as “failed”.

Regarding “MIKVEKEVSNDYIIKGFKHFTQLATEYFQGHPDCNAARKRMRDTIDANLQLKAELTAASYTEHTTLLSPKMQQIIWAHWGPPIISLSENHANELEHHHHHH”, the protein production result is listed as “failed”.

For the sequence “MIKVGVIGFGTVGQGVVESLVQLERGLRKEVTLEMLLVTNRRKHEHSEQYALVTDDWETFAARYYDVVFEAAGGIEPVYDYVRFFLKKGVPVVTANKKLVAERGEELERLAAENDTYLCYEAAVAGGIPILNAIKGTLATTSFTSVAGILNGTTNYILTGMIEQNRPFQDMLEEAQAKGYAEADPTDDIEGYDAWYKIRILARLCFGIWPNRDDISRSGLHDVLDWHVELGQSLGLTLKLDGRASVKNNTIIGSVAPAFFTNDHPFSTVYGVTNAVVLEGKAIERLLFTGPGAGKEATANSMVEDYLFHERYKGERQPMLIKEKEQNRIANVLVMVAAHEKKEAEKVVEHLPCQRINTFAADEGEAWWLKVYEDVIPFISKQLGLSLYRVYGAFEKQLVTTNMHHPSSIDETLEQKA”, the protein production entry is listed as “failed”.
